Test results reported in patent publication US20250382355A1 (Merck Sharp & Dohme, published 2025).

target: SARS-CoV prefusion-stabilized spike protein (SARS-CoV-PreS) (SARS-CoV, UniProt P59594 14-1190); assay: ELISA

Binder	EC50 [pM]
5D7 VHH-Fc (Fc fusion) QVQLVESGGGLVQAGGSLRLSCAASGRTGSRYIMGWFRQAPGKEREFVAAINWRGDSTYYADSVKGRFTIARDNAKNTAYLQMNSLKPEDTAVYYCVADRGESYYYTRSTEYTYWGQGTQVTVSS	40
19E10 VHH-Fc (Fc fusion) QVQLVESGGGLVQPGGSLRLSCVASGSTISINSMGWYRQAPGKAREMVATITNDGPIKYADPVKGRFTISRDNPKNTVYLQMNSLKPEDTAVYYCVADRAYWLAGEWEYWGQGTQVTVSS	30
1A11 VHH-Fc (Fc fusion) QVQLVESGGGLVQAGGSLRLSCEVSGSIYSINSMGWYRQAPGKQRELVAGIVSDGRINYADSVKGRFTISRAKNTVYLQMNSLKPEDTAVYYCAADRAFVYAGDYDYLGQGTQVTVSS	50
8E9 VHH-Fc (Fc fusion) QVQLVESGGGLVEAGGSLRLSCVASGSSSSINAMGWYRQAPGKQRELVASISHDGETKYANSVKGRFTISRGNAKNTIYLQMNSLKPEDTAVYYCVGDVAWVVVAGEYDYWGQGTQVTVSS	80
5G11 VHH-Fc (Fc fusion) QVQLVESGGGLVQAGGSLRLSCAASGRTFSIYAVGWFRQAPGKERDFVAGITWSGGTTYYSDSVKGRFTISRDNAKNTVYLQMNNLKPEDTAIYYCAVDTYSMTLSARSYDYWGQGTQVTVSS	180
13C8 VHH-Fc (Fc fusion) QVQLVESGGGLVQAGGSLRLSCAASGRTVNKYMTGWFRQTPGKEREFVASIDWSSTTTHYANSVKGRFTISRDKVKNTVYLQMNGLKPEDTAVYYCAAHQDSSYGYTILPIDYDSWGQGTQVTVSS	100
15H7 VHH-Fc (Fc fusion) QVQLVESGGRLVQAGGSLRLSCAAPGRTFRNLTLGWFRQAPGKEREFVASTSWPDDEMTYYTDSVKGRFTISRDNAKNTVYLQMNSLKPEDTAVYYCAAASWSGRSTLSYDYDYWGQGTQVTVST	80
15H1 VHH-Fc (Fc fusion) QVQLVESGGGLAQAGGSLRLSCASSGLIFSGSAMGWFRQAPGKEREFVGVISWNGRTTYADSVKGRFTISRDDAVNMVWLQMNNLKPEDTAVYYCAADHLNYGSGDVNPRTYDYWGQGTQVTVSS	60
9B2 VHH-Fc (Fc fusion) QVQLVESGGGLVQPGGSLRLSCAASGFTLDNYAIGWFRQAPGKEREGVSCISSSDGDTQYADSVKGRFTISRDNAKNTVYLQMNSLKPEDTAVYYCAVEKVYARSWFFHLCSELDFGSWGQGTQVTVSS	120
7A9 VHH-Fc (Fc fusion) QVQLVESGGGLVQAGGSLRLSCSASGGTASRSAMGWFRQAPGKEREFVAGISRRNSGSTYVADSYEDSVKGRFTISRDNAKNTIYLQMNSLKPEDTAVYYCAAEPTLGWYVPRRSVEYEYWGQGTQVTVSS	60
11F8 VHH-Fc (Fc fusion) QVQLVESGGGLVQAGGSLRLSCAASGRTVGYYAVGWFRQAPGKERDFVAAISWSGRNTNYADSVTGRFTIFRDNAKNTVDLQMNSLKPEDTAVYYCAADYWNYGSGSEVPNNYDTWGQGTQVTVSS	180
5A6 VHH-Fc (Fc fusion) QVQLVESGGGLAQAGGSLRLSCATSGLTFSMSAMGWFRQAPGNEREFVGVINWNGGSSRYADSVRGRFTISRDNAKNTVYLQMNSLKPEDTGVYYCAADALNIGTGEVNPRLYDYWGQGTQVMVSS	90
10B8 VHH-Fc (Fc fusion) QVQLVESGGGLVQPGGSLRLSCAASGITLDYYAIAWFRQAPGKEREGVSCFCSSDGDIRYADSVKGRFTISRDNAKNTVYLQMNSLKPEDTAVYYCATERVYSSTWFFHRYSELDFGSWGRGTQVTVSS	130
